Source: US20250002527A1, “STEROID COMPOUND AND CONJUGATE THEREOF” (DUALITY BIOLOGICS (SUZHOU) CO., LTD., priority 2021, published 2025)

T1: glucocorticoid receptor (Homo sapiens, UniProt P04150)
T1 construct: expressed in transfected cells; host or cells: HEK293
T1 sequence (P04150 1-777): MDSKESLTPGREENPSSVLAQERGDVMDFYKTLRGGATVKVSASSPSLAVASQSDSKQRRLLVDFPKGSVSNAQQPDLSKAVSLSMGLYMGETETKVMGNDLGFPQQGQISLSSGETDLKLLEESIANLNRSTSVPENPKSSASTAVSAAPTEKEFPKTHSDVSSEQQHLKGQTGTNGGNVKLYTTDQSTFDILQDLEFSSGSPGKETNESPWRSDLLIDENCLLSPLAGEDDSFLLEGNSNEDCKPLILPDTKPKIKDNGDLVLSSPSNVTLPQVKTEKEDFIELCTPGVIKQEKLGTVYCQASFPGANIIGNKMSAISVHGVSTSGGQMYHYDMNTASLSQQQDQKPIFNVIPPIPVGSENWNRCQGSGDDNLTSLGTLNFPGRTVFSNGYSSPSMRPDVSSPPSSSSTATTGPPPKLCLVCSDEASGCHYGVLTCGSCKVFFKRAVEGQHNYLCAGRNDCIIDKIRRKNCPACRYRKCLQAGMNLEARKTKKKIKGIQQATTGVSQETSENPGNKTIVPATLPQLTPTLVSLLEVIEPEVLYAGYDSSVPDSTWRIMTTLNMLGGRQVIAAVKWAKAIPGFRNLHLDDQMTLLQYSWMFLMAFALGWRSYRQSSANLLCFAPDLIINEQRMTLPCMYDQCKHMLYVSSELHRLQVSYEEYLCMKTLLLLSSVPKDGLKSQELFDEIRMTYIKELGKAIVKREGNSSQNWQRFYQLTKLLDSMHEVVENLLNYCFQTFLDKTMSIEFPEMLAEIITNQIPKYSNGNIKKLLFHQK

B1: Conjugate 19: antibody BIIB059 reacted with Compound 9 "to give Conjugate 19"; 4.75 by LC-MS (conjugate, chains of the INN, looked up)
VH: DVQLVESGGGLVKPGGSLRLSCAASGFTFSTYTMSWVRQAPGKGLEWVATISPGDSFGYYYPDSVQGRFTISRDNAKNSLYLQMNSLRAEDTAVYYCTRDIYYNYGAWFAYWGQGTLVTVSS
VL: DIQLTQSPSSLSASVGDRVTITCKASQSVDYDGDSYMNWYQQKPGKAPKLLIYAASTLESGVPSRFSGSGSGTDFTLTISSLQPEDFATYYCQQANEDPRTFGQGTKVEIK
modifications: Compound 9 conjugate
notes: antibody BIIB059 reacted with Compound 9 "to give Conjugate 19"; 4.75 by LC-MS
B2: Conjugate 21: antibody BIIB059 reacted with Compound 15 "to give Conjugate 21"; 4.30 by LC-MS (conjugate, chains of the INN, looked up)
VH: DVQLVESGGGLVKPGGSLRLSCAASGFTFSTYTMSWVRQAPGKGLEWVATISPGDSFGYYYPDSVQGRFTISRDNAKNSLYLQMNSLRAEDTAVYYCTRDIYYNYGAWFAYWGQGTLVTVSS
VL: DIQLTQSPSSLSASVGDRVTITCKASQSVDYDGDSYMNWYQQKPGKAPKLLIYAASTLESGVPSRFSGSGSGTDFTLTISSLQPEDFATYYCQQANEDPRTFGQGTKVEIK
modifications: Compound 15 conjugate
notes: antibody BIIB059 reacted with Compound 15 "to give Conjugate 21"; 4.30 by LC-MS
B3: Conjugate 20: antibody BIIB059 reacted with Compound 16 "to give Conjugate 20"; 4.27 by LC-MS (conjugate, chains of the INN, looked up)
VH: DVQLVESGGGLVKPGGSLRLSCAASGFTFSTYTMSWVRQAPGKGLEWVATISPGDSFGYYYPDSVQGRFTISRDNAKNSLYLQMNSLRAEDTAVYYCTRDIYYNYGAWFAYWGQGTLVTVSS
VL: DIQLTQSPSSLSASVGDRVTITCKASQSVDYDGDSYMNWYQQKPGKAPKLLIYAASTLESGVPSRFSGSGSGTDFTLTISSLQPEDFATYYCQQANEDPRTFGQGTKVEIK
modifications: conjugated to Compound 16
notes: antibody BIIB059 reacted with Compound 16 "to give Conjugate 20"; 4.27 by LC-MS

How the values were obtained:
Assay type in all cases: cell-based
glucocorticoid receptor = target: T1, glucocorticoid receptor; assay: Measurement 1 of glucocorticoid receptor reporter gene GRE activity; details: HEK293 transfected with pGL5 and pBIND-GR, 24 hours
Method: HEK293 cells were cultured in DMEM+10% FBS medium in a carbon dioxide incubator humidified at 37° C. at 5% carbon dioxide.
The prepared transfection mixtures were added to 10 mL of the cell density-adjusted resuspension, mixed well by turning the mixtures upside down, and seeded into a 96-well plate at a volume of 100 μL/well.
The test plate was detected using the Dual-Glo Luciferase Assay System kit from Promega, and the fluorescence signal of Firefly Luciferase and the fluorescence signal of Renilla Luciferase were read using Enspire, respectively.
The final measurement value was a normalized value “F/R” obtained by dividing the Firefly Luciferase fluorescent signal by the Renilla Luciferase fluorescent signal.
The data were copied and pasted into Excel, and the activation rate was obtained through an equation.
The data were imported into MS Excel and subjected to curve fitting by using XLFit excel add-in version 5.4.0.8 to obtain an EC50 value.
Y is the agonism and X is the concentration of the compound.

human PBMC cells [1] = assay: R848-induced TNFα release from PBMCs (drug conjugates, FIG. 1b); details: incubation concentration 300 nm
Method: (§1) 1a: R848-induced IFNα release from PBMCs; 1b: R848-induced TNFα release from PBMCs; 1c: R848-induced IL6 release from PBMCs, 1d: R848-induced IL8 release from PBMCs.
(§2) The inhibitory effect of the ligand-drug conjugate (ADC) of the present application on the production of IFNα by peripheral blood monocytes was examined. The peripheral blood monocytes were treated in vitro with the ligand-drug conjugate at different concentrations, and IFNα and TNFα generated by the peripheral blood monocytes were quantitatively detected after a certain time. The ligand-drug conjugates were evaluated for in-vitro activity.
(§3) The cryopreserved human PBMC cells were resuspended in a complete medium and counted, and the cell suspension was adjusted to 2.5×10*6 cells/mL with the culture medium. After the suspension was centrifuged to collect the cells the next day, the cells were resuspended using fresh culture medium, and 100 μL of diluted cells ([…]) were added into a 96-well plate. The test samples were diluted to 3-fold final stimulation concentration using fresh culture medium, 50 μL of the diluted test samples were added into the 96-well cell plate, and the cell plate was incubated at 37° C. with 5% CO2 for 12 hours, followed by addition of 50 μL 20 μM R848 each well. The cell plate was incubated at 37° C. with 5% CO2 for 20 hours. The supernatant was collected, and the cytokine concentration in the supernatant was detected using a kit.
(§4) TNF-α concentration assay was performed using Dakewe TNF-α ELISA kit (Cat #1117202), 100 μL of the serially-diluted cytokine standard was added into each well, 100 μL of the above supernatant diluted 10-fold was added into each well, and 100 μL of 1× dilution buffer R was added into each blank well. 50 μL of biotinylated antibody working solution was added into each well. After mixing well, the plate was covered with the plate-sealing membrane and incubated at room temperature for 3 hours. […] The reading at a wavelength of 450 nm was detected by an M2e instrument within 10 minutes after termination.

human PBMC cells [2] = assay: R848-induced IL8 release from PBMCs (drug conjugates, FIG. 1d); details: incubation concentration 300 nm
Method: as §1, §2, §3
as §4, with “IL-8” for “TNF-α”, “#1110802),” for “#1117202),”, “2-fold” for “10-fold”

human PBMC cells [3] = assay: R848-induced IL6 release from PBMCs (drug conjugates, FIG. 1c); details: incubation concentration 300 nm
Method: as §1, §2, §3
IL-6 concentration assay was performed using Dakewe IL-6 ELISA kit (Cat #DKW12-1060-096), 100 μL of serially-diluted cytokine standard was added into each well, 100 μL of the above supernatant diluted 2-fold was added into each well, and 100 μL of 1× dilution buffer R was added into each blank well. 50 μL of biotinylated antibody working solution was added into each well. After mixing well, the plate was covered with the plate-sealing membrane and incubated at room temperature for 3 hours. […] The reading at a wavelength of 450 nm was detected by an M2e instrument within 10 minutes after termination.

human PBMC cells [4] = assay: R848-induced IFNα release from PBMCs (drug conjugates, FIG. 1a); details: incubation concentration 300 nm
Method: as §1, §2, §3
as §4, with “IFN-α concentration” for “TNF-α concentration”, “(Cat #1110012),” for “(Cat #1117202),”, “diluted 2-fold” for “diluted 10-fold”

Molecule | EC50 (glucocorticoid receptor) | TNF-α contents in the detection system (human PBMC cells [1]) | IL-8 contents in the detection system (human PBMC cells [2]) | IL-6 contents in the detection system (human PBMC cells [3]) | IFN-α contents in the detection system (human PBMC cells [4])
C[C@]12C=CC(=O)C=C1CC[C@@H]1[C@@H]2[C@@H](O)C[C@@]2(C)[C@H]1C[C@H]1O[C@H](c3ccc(Cc4ccc(CO)cc4)cc3)O[C@]12C(=O)CO [Compound 4S] | 1.42 nM | – | – | – | –
B1 | – | 761.8 pg/mL | 26565.5 pg/mL | 8861.7 pg/mL | 113.2 pg/mL
B2 | – | 2644.1 pg/mL | 43544.9 pg/mL | 29867.1 pg/mL | 911.9 pg/mL
B3 | – | 3280.0 pg/mL | 56315.8 pg/mL | 34744.1 pg/mL | 1422.5 pg/mL
